This is an account of results in PMC5100602.

pKd: −log10 of the molar value.

As usually defined, the pKd is the negative decadic logarithm of the Kd, by convention in mol/L. High values mean a low Kd, low ones a high Kd.

The data set concerns the target Gk-S15 (ribosomal protein S15) (Geobacillus kaustophilus) (UniProt Q5L0I3). Description: filter binding. To be noted: SELEX Binding Buffer A: 50 mM Tris/acetate pH 7.5, 20 mM Mg-acetate, 270 mM KCl, 5 mM DTT, 0.02% BSA, 25 C, 30 min; filter binding (nitrocellulose/nylon) as ….

In the case of Gk-mRNA, the pKd was 9.15.
